Measurements from FireProtDB (doi:10.1110/ps.8.9.1843).

B1: Guanyl-specific ribonuclease T1, P00651 (parent)
chain: MMYSKLLTLTTLLLPTALALPSLVERACDYTCGSNCYSSSDVSTAQAAGYQLHEDGETVGSNSYPHKYNNYEGFDFSVSSPYYEWPILSSGDVYSGGSPGADRVVFNENNQLAGVITHTGASGNNFVECT
B2: Guanyl-specific ribonuclease Sa, P05798 (parent)
chain: DVSGTVCLSALPPEATDTLNLIASDGPFPYSQDGVVFQNRESVLPTQSYGYYHEYTVITPGARTRGTRRIITGEATQEDYYTGDHYATFSLIDQTC

Tests used:
[1] = variants of: B1; conditions: Aspergillus oryzae (strain ATCC 42149 / RIB 40), 25 °C, Urea, CD, structure 1RN1, whole UniProt chain shown
[2] = variants of: B2; conditions: Kitasatospora aureofaciens; pH 7; Thermal; CD; MOPS 30 mM; structure 1RGG; whole UniProt chain shown

Row | Variant | denaturant m value ([1]; pH 2.5, glycine 30 mM) | denaturant midpoint (higher = more stable) ([1]; pH 2.5, glycine 30 mM) | denaturant m value ([1]; pH 7, MOPS 30 mM) | denaturant midpoint (higher = more stable) ([1]; pH 7, MOPS 30 mM) | Tm [2] | unfolding enthalpy (van 't Hoff) [2]
1 | MMYSKLLTLTTLLLPTALALPSLVERACDYTCGSNCYSSSDVSTAQAAGYQLHEDGETVGSNSYPHKYNNYEGFAFSVSSPYYEWPILSSGDVYSGGSPGADRVVFNENNQLAGVITHTGASGNNFVECT [D75A] | 1.69 kcal/mol/M | 3.42 M | 1.21 kcal/mol/M | 5.67 M |  | 
2 | DVSGTVCLSALPPEATDTLNLIASKGPFPYSQDGVVFQNRESVLPTQSYGYYHEYTVITPGARTRGTRRIITGEATQEDYYTGDHYATFSLIDQTC [D25K] |  |  |  |  | 50.2 °C | 93 kcal/mol
3 | DVSGTVCLSALPPEATDTLNLIASDGPFPYSQDGVVFQNRESVLPTQSYGYYHEYTVITPGARTRGTRRIITGKATQEDYYTGDHYATFSLIDQTC [E74K] |  |  |  |  | 51.1 °C | 94 kcal/mol
